Measurements published in patent US20180325981A1 (published 2018).
Values belong to the binder of their own block, whether it stands above or below them. Square brackets hold non-standard residues; d marks the D form. Nva = CCC[C@H](N)C(=O)O

Experiments:
[1] = biological target: T1, purified recombinant ADIPOR1 (A88) (UniProt Q96A54 89-375); assay: SPR, ADIPOR1 amine-coupled to CM5 chip, peptide injected
T1 construct: range 89-375; Expressed in SF9 cells by baculovirus, solubilised in DDM, purified on anti-Flag beads (eluted with Flag peptide) and by size exclusion as monomer; amine-coupled to a CM5 chip; also called adiponectin receptor 1; adiponectin receptor ADIPOR1; not shown: Flag tag at the N-terminus
T1 sequence: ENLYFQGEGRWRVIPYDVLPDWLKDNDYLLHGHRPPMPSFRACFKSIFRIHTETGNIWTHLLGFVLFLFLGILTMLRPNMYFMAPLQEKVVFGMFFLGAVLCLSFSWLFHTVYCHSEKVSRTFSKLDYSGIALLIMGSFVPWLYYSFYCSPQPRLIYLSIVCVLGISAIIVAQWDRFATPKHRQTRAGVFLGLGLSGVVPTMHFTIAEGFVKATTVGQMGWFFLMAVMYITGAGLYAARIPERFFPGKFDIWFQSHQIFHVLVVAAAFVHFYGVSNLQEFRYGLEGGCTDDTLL
Method: (§1) In order to analyze the binding force between peptide and ADIPOR1, a purified recombinant ADIPOR1 (A88) was bound to a CM5 chip with 3000 RU or higher through amine coupling. Peptide was diluted with a running buffer (0.1% DDM, 0.005% CHS, 10 mM HEPES, 150 mM NaCl with pH 7.4) and injected into a SPR instrument at various concentrations to analyze the binding force. The affinity value was calculated using the affinity fitting or kinetics fitting method. In order to analyze peptide solubility, peptide stocks were prepared with DMSO, diluted in an appropriate buffer, and then undissolved precipitates were removed. The peptide concentrations were calculated by measuring the […] and A280 absorbance of each peptide.
With reference to FIGS. 3 and 4, surface plasmon resonance (SPR) experiments were performed in the present invention to measure the dissociation constant between the agonist peptide and the adiponectin receptor, particularly adiponectin receptor 1 (ADIPOR1). First, an expressed and purified adiponectin receptor ADIPOR1 was immobilized and its dissociation constant from candidate peptides was measured over a total of 4 rounds.

[2] = biological target: purified recombinant ADIPOR1 (A88) (UniProt Q96A54); assay: SPR, immobilised ADIPOR1
[3] = biological target: T1, purified recombinant ADIPOR1 (A88); assay: SPR; recombinant ADIPOR1 amine-coupled to a CM5 chip, peptide injected
Method: as §1

B1: reference peptide ADP355 (peptide)
peptide: H-[dN]IP[Nva]LY[dS]FA[dS]-NH2
SMILES: CCC[C@H](NC(=O)[C@@H]1CCCN1C(=O)[C@@H](NC(=O)[C@H](N)CC(N)=O)[C@@H](C)CC)C(=O)N[C@@H](CC(C)C)C(=O)N[C@@H](Cc1ccc(O)cc1)C(=O)N[C@H](CO)C(=O)N[C@@H](Cc1ccccc1)C(=O)N[C@@H](C)C(=O)N[C@H](CO)C(N)=O
- Kd [2]: > 100 µM

B2: 3-3 (peptide)
peptide: NIPGLWYFAY
notes: 3rd round synthetic peptide; also called peptide 3-3
- Kd [3]: 30.7 µM

B3: 3-4 (peptide)
peptide: NIPGLFYFAY
notes: 3rd round synthetic peptide; also called peptide 3-4
- Kd [3]: 23.2 µM

Results, then the binder that gave them:

- Kd [1]: 2 to 4.3 µM
Binder: FYFAYHPNIPGLFYF (Synthetic 4th round agonist peptide) [peptide 4-4]

- Kd [1]: 6 to 10 µM
Binder: WYFAYHPNIPGLWYF (Synthetic 4th round agonist peptide) [peptide 4-3]

- Kd [1]: ≤ 16 µM
B4: peptide 3-1 (peptide)
peptide: YYFAYHPNIPGLYYF
notes: Synthetic 3rd round agonist peptide designed for the adiponectin receptor
